In US20190367592A1 (AC IMMUNE, published 2019):
Values joined by “and” are separate entries in the source; they are usually repeats but may differ in a detail not shown here. Equal entries are not always repeated.

Legend:
[1] = molecular target: T1, recombinant human Tau monomer, 2N4R isoform (amino acids 2-441) (human, UniProt P10636-8 2-441); experiment: SPR screen, hIgG captured, Tau monomer analyte; mean of n = 3
T1 construct: range 2-441; N-terminal His-tag removed with TEV protease; also called monomeric Tau
Description: Antibody 125B11-H3 was humanized onto VH3 and Vκ1 consensus frameworks. The heavy chain graft included murine residues at position 78 (Kabat numbering system). The Vκ1 graft included murine residues in framework positions 43 and 87. The light chain of 113F5-F7 was also humanized onto the Vκ1 framework, with additional murine residues at framework positions 43 and 87. Humanized variant heavy chains (125B11) and light chains (125B11 and 113F5-F7) were co-transfected in multiple combinations and purified in 96-well format as described above. Humanized variants were then screened for affinity for human Tau monomer using the Biacore human IgG capture kit, a Series S CM5 chip and a Biacore T200 instrument. Antibodies were diluted to 2 μg/ml and captured for 15 seconds at 10 μl/min. Association and dissociation of 0, 100 and 500 nM human Tau monomer in HBSP was monitored for 180s and 300s respectively at a flow rate of 40 μl/min. A 1:1 binding model was applied to the results (Table 9).
Variants hu125B11.v17 (HC3+LC1), hu125B11.v26 (HC4+LC2) and hu125B 11.v28 (HC4+LC4) were selected for high-resolution kinetic analysis based on the affinity screen (Table 10). Antibody 94B2-C1 was humanized onto VH1 and Vx2 frameworks. The heavy chain graft also included murine residues at position 28, 29, 67, 69, 71, and 73 (Kabat numbering system). […]

[2] = molecular target: T1, recombinant human Tau monomer, 2N4R …; experiment: SPR; Normalized Rmax post-stress (2 weeks 40 C) / pre-stress
In short: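 First, IgGs from 1 mL culture were protein A purified and set to 0.1 mg/ml. Next, aliquots were stored at ~4° C. or stressed at 40° C. for two weeks. Then each prep was captured and probed with Tau monomer by multi-cycle SPR at 25° C., fitting a 1:1 binding model.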

[3] = molecular target: T1, recombinant human Tau monomer, 2N4R …; experiment: SPR, captured IgG, Tau monomer analyte, 1:1 model; fit-quality column: Yes
Description: Briefly, IgGs in 1 mL culuture were captured using tip columns that were custom packed with 20 μL MabSelect SuRe resin (Glygen Corp & GE Healthcare). After washing with 1×PBS pH 7.4, IgGs were eluted into 160 μL of 50 mM phosphoric acid pH 3 and neutralized with 12 μL of 20×PBS pH 11. MabSelect SuRe tip columns were stripped in 0.1 M NaOH and regenerated with 1×PBS pH 7.4 for consecutive use of up to 15 times. Purified antibodies in 96-well format were normalized to 0.1 mg/ml using a Hamilton Star liquid handling robot. The “pre-stress” samples were kept at approximately 4° C. and the “post-stress” samples were incubated at 40° C. for two weeks in a PCR machine. Functional stability of the variants was compared by running surface plasmon resonance kinetics experiments with the “pre-stress” and “post-stress” antibody preps. The antibodies were assessed using a human antibody capture CM5 Series S chip generated using the GE Biacore human IgG capture kit and a Biacore T200 instrument. Antibodies diluted to 2 μg/ml were immobilized using a 15 second injection time and 10 μl/min flow rate. Binding to Tau monomer at 0 nM, 26.5 nM and 265 nM, at 25° C., using a flow rate of 40 μl/min, was monitored for a 180 second association phase followed by a 300 second dissociation phase. Samples were run in 10 mM HEPES pH7.4, 150 mM NaCl, 0.05% Tween 20 (HBSP) using a multi-cycle kinetics format. Data was analyzed using BIAevaluation software, fitting a 1:1 binding model. The resulting affinity (KD) values are shown in FIG. 8A-D. A Stability Index was also calculated, using the rationale that affinity-compromised antibodies (due for example to deamidation of key residues) are expected to contribute equally to the IgG capture level (“Ligand Level”) but to contribute less to the measured Tau binding, and that this would be reflected in the experimentally derived value for Rmax. To account for variations in the amount of each antibody captured, Rmax was normalized for the antibody capture level (as measured by “Ligand Level”, Response Units immobilized during antibody capture). Thus Normalized Rmax is calculated as the experimental Rmax (units=RU) divided by the “Ligand Level” (Evaluation output representing the RU captured during the hIgG capture step, units=RU), and Stability Index is calculated here as Normalized Rmax (post-stress) divided by Normalized Rmax (pre-stress).

[4] = molecular target: T1, recombinant human Tau monomer, 2N4R …; experiment: SPR detailed kinetics, hIgG captured, Tau monomer analyte
Description: Grafting onto consensus VH3, Vκ2 and Vκ1 frameworks was assessed. The heavy chain graft included murine residue at position 49 (Kabat numbering system). The Vκ2 graft included murine residues in framework positions 2 and 4. The Vκ1 graft included murine residues in framework positions 2, 4 and 43. Humanized variants were constructed by gene synthesis and subcloning into human IgG1 or IgG4 and Kappa chain mammalian expression vectors. Antibodies were expressed by co-transfection of the heavy and light chain plasmids into CHO cells and purified with affinity resin MabSelect Sure. Humanized variants were screened for affinity to human Tau monomer using the Biacore human IgG capture kit, a Series S CM5 chip and a Biacore T200 instrument. […] Association and dissociation of 100, 33, 11 and 3.7 nM human Tau monomer in 10 mM HEPES pH7.4, 150 mM NaCl, 0.05% Tween 20 (running buffer, HBSP) was monitored for 180 seconds and 600 seconds respectively at a flow rate of 30 μl/min. […]
Antibody variants hu37D3-H9.v1, hu37D3-H9.v2, hu37D3-H9.v5 and hu37D3-H9.v6 were characterized further by surface plasmon resonance with additional antibody concentrations and longer association/dissociation times. These variants were analyzed with a broader range of human Tau monomer concentrations (1.2, 3.7, 11.1, 11.1, 33.3, 100 nM) and increased association (300 seconds) and dissociation (1200 seconds) periods. […]

[5] = molecular target: T1, recombinant human Tau monomer, 2N4R …; experiment: SPR screen, hIgG captured, Tau monomer analyte
Description: Grafting onto consensus VH3, Vκ2 and Vκ1 frameworks was assessed. The heavy chain graft included murine residue at position 49 (Kabat numbering system). The Vκ2 graft included murine residues in framework positions 2 and 4. The Vκ1 graft included murine residues in framework positions 2, 4 and 43. Humanized variants were constructed by gene synthesis and subcloning into human IgG1 or IgG4 and Kappa chain mammalian expression vectors. Antibodies were expressed by co-transfection of the heavy and light chain plasmids into CHO cells and purified with affinity resin MabSelect Sure. Humanized variants were screened for affinity to human Tau monomer using the Biacore human IgG capture kit, a Series S CM5 chip and a Biacore T200 instrument. Antibodies were diluted to 2 μg/ml and captured for 15 seconds at 10 μl/min. Association and dissociation of 100, 33, 11 and 3.7 nM human Tau monomer in 10 mM HEPES pH7.4, 150 mM NaCl, 0.05% Tween 20 (running buffer, HBSP) was monitored for 180 seconds and 600 seconds respectively at a flow rate of 30 μl/min. A 1:1 binding model was applied to the results (Table 7).

[6] = molecular target: T1, recombinant human Tau monomer, 2N4R …; experiment: SPR, hIgG captured, Tau monomer analyte
Description: Affinity was assessed at 25° C. using a Biacore T200 instrument, the GE Biacore human IgG capture kit and a CM5 Series S chip. The hIgG were diluted to 2 μg/ml in 10 mM HEPES pH7.4, 150 mM NaCl, 0.05% Tween 20 (running buffer, HBSP) and captured at a flow rate of 10 μl/min for 22 seconds. […] Between cycles the surface was regenerated using a 30 second injection of 3M Magnesium Chloride at 10 μl/min. A 1:1 binding model was fitted to the data and affinities for hu37D3-H9.v5 and hu37D3-H9.v5.3 (also referred to herein as hu37D3-H9.v5 N28D) calculated using kinetic analysis. Parameters used for the 1:1 fitting included the Instrument default of local fitting for the “RI” parameter.

[7] = molecular target: T2, AVI-tag biotinylated oligomeric flTau (human, UniProt P10636-8 1-441, site-specific biotin on AVI-tag); experiment: capture ELISA, antibody on anti-IgG plate, biotinylated oligoTau titrated, O.D.
T2 construct: also called oligoTau; oligomeric Tau
Description: (§1) For the oligoTau and monoTau capture ELISAs, antibodies contained in serum-free sterile hybridoma supernatants were immobilized on an anti-IgG coated plate at 500-fold dilution, followed by the incubation of oligoTau or monoTau, both with site-specific biotinylation via an AVI-tag. The target incubations started at 5 μg/mL and then were diluted 8- or 16-fold. Streptavidin-HRP and ABTS substrate was used for signal quantitation in a plate reader (Tecan, Switzerland). Results are expressed as O.D.

[8] = molecular target: T3, full-length human Tau (flTau) (human, UniProt P10636-8 1-441); experiment: indirect ELISA, flTau coated, hybridoma supernatant diluted, O.D.
T3 construct: range 1-441; bought (SignalChem); also called human Tau-441
Description: Coating was done overnight in phosphate-buffered saline (PBS) at 4° C. Plates were washed thoroughly with 0.05% Tween-20/PBS and then blocked with 1% bovine serum albumin (BSA) in 0.05% Tween-20/PBS for 1 hr at 37° C. The antibody contained in the hybridoma supernatant was then added at the indicated dilutions, and incubated for 2 hrs at 37° C. after which the plates were washed as described previously.
For the indirect ELISAs, an AP-conjugated anti-mouse IgG secondary antibody (Jackson ImmunoResearch Laboratories, United Kingdom) was added at 1/6000 dilution in 0.05% Tween-20/PBS for 2 hr at 37° C. After the final wash, plates were incubated with p-nitrophenyl phosphate disodium hexahydrate (pNPP; Sigma-Aldrich, Switzerland) phosphatase substrate solution, and read at 405 nm using an ELISA plate reader (Tecan, Switzerland). Results are expressed as optical densities (O.D.).

[9] = molecular target: T4, AVI-tag biotinylated monomeric flTau (human, UniProt P10636-8 1-441, site-specific biotin on AVI-tag); experiment: capture ELISA, antibody on anti-IgG plate, biotinylated monoTau titrated, O.D.
T4 construct: also called monoTau; monomeric Tau
Description: as §1

T1 sequence (P10636 other isoform, or with tags, fused parts or gaps limits assumed): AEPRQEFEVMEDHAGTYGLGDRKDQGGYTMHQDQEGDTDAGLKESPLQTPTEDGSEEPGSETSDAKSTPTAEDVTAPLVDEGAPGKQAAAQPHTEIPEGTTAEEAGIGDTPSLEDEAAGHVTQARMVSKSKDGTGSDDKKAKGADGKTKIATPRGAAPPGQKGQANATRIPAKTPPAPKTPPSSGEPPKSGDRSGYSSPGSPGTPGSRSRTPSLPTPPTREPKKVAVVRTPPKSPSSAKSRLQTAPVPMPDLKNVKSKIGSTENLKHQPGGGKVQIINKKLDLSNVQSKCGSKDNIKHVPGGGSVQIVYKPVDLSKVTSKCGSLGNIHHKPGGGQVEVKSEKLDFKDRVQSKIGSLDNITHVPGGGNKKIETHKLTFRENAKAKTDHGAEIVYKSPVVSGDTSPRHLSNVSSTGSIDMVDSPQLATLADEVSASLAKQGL
T2 sequence (P10636 other isoform, or with tags, fused parts or gaps limits assumed): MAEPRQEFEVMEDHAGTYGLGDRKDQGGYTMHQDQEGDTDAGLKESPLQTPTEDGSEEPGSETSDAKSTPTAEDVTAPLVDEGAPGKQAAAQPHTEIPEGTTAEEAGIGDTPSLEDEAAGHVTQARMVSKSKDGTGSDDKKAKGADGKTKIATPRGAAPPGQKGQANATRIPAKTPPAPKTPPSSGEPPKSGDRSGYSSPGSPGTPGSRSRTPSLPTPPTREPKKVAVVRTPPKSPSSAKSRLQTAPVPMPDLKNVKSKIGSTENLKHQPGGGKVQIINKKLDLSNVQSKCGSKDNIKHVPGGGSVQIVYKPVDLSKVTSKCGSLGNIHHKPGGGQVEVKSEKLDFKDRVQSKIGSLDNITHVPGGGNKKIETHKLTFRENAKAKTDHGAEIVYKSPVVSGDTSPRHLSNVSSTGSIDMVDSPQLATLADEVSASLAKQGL

| Stability Index [2] [%] | Kd [3] [nM] | Kd [4] | Kd [5] [nM] | Binder | also measured |
| --- | --- | --- | --- | --- | --- |
|  |  |  |  | hu94B2 HC1 + LC9 (antibody, V domains shown) VH: EVQLVQSGAEVKKPGASVKVSCKASGYSLTGYTMNWVRQAPGQGLEWIGLISPYNGVTSYNQKFKGRATLTVDKSTSTAYLELSSLRSEDTAVYYCARQGAYWGQGTLVTVSS VL: DVVMTQTPLSLPVTPGQPASISCKSSQSLLDSDGKTYLNWLLQKPGQSPQRLIYLVSKLDSGVPDRFSGSGSGTDFTLKISRVEAEDVGVYYCWQGTHFPWTFGQGTKVEIK | Kd [1]: 3.8 nM |
| 73 | 0.9 | 0.8 nM | 1.9 | hu37D3-H9.v5 (antibody, V domains shown, human IgG1 or IgG4, kappa) VH: EVQLVESGGGLVQPGGSLRLSCAASGLIFRSYGMSWVRQAPGKGLEWVATINSGGTYTYYPDSVKGRFTISRDNSKNTLYLQMNSLRAEDTAVYYCANSYSGAMDYWGQGTLVTVSS VL: EDVLTQTPLSLPVTPGQPASISCRSSQSIVHSNGNTYFEWYLQKPGQSPQLLIYKVSNRFSGVPDRFSGSGSGTDFTLKISRVEAEDVGVYYCFQGSLVPWTFGQGTKVEIK |  |
|  |  | 1.1 nM and 1 nM | 4.1 | hu37D3-H9.v1 (antibody, V domains shown, human IgG1 or IgG4, kappa) VH: EVQLVESGGGLVQPGGSLRLSCAASGLIFRSYGMSWVRQAPGKGLEWVATINSGGTYTYYPDSVKGRFTISRDNSKNTLYLQMNSLRAEDTAVYYCANSYSGAMDYWGQGTLVTVSS VL: EDQLTQSPSSLSASVGDRVTITCRSSQSIVHSNGNTYFEWYQQKPGKSPKLLIYKVSNRFSGVPSRFSGSGSGTDFTLTISSLQPEDFATYYCFQGSLVPWTFGQGTKVEIK |  |
| 70 | 73.2 |  |  | hu37D3-H9.v5 N28D hIgG1 (antibody, name in Kabat numbering, V domains shown, human IgG1, kappa; also called hu37D3-H9.v5.3) VH: EVQLVESGGGLVQPGGSLRLSCAASGLIFRSYGMSWVRQAPGKGLEWVATINSGGTYTYYPDSVKGRFTISRDNSKNTLYLQMNSLRAEDTAVYYCANSYSGAMDYWGQGTLVTVSS VL: EDVLTQTPLSLPVTPGQPASISCRSSQSIVHSDGNTYFEWYLQKPGQSPQLLIYKVSNRFSGVPDRFSGSGSGTDFTLKISRVEAEDVGVYYCFQGSLVPWTFGQGTKVEIK | Kd [6]: 160 nM; fold reduction in affinity against hu37D3-H9.v5 [6]: > 100 fold |
|  |  |  |  | 15C6-A7 (antibody, V domains shown, hybridoma supernatant) VH: EVQLQQSGPELVKPGASVMMTCKASGYTFTDYYMKWVKQSNGKSLEWIGDLDPYTGGANYNQKFKGKATLTVDKSSSTAYMHLNSLTSEDSAVYYCARSRGYGDSFAYWGQGTLVTVSA VL: DVLMTQTPLSLPVSLGDQASISCRSSQNIVHSNGNTYLEWYLQKPGQSPKLLIYKVSNRFSGVPDKFSGSGSGTDFTLKISRVEAEDLGVYFCFQGSHVPPTFGGGTKLEIK | binding result [7]: binds; binding result [8]: binds; binding result [9]: binds |
